According to the supplement of paper PMC7877785:
± gives the uncertainty stated by the source.

Test: self-splicing fitness, log relative to wild type (ln ratio); higher = more splicing; Tetrahymena group I intron in knt gene, E. coli kanamycin selection, DiMSum; sequences stand for … in CUCUCU…GGAGGGAAAAGUUAUCAGGCAUGCACCUGGUAGCUAGUCUUUAAACCAAUAGAUUGCAUCGGUUUAAAAGGCAAGACCGUCAAAUUGCGGGAAAGGGGUCAACAGCCGUUCAGUACCAAGUCUCAGGGGAAACUUUGAGAUGGCCUUGCAAAGGGUAUGGUAAUAAGCUGACGGACAUGGUCCUAACCACGCAGCCAAGUCCUAAGUCAACAGAUCUUCUGUUGAUAUGGAUGCAGUUCACAGACUAAAUGUCGGUCGGGGAAGAUGUAUUCUUCUCAUAAGAUAUAGUCGGACCUCUCCUUAAUGGGAGCUAGCGGAUGAAGUGAUGCAACACUGGAGCCGCUGGGAACUAAUUUGUAUGCGAAAGUAUAUUGAUUAGUUUUGGAGUACUCGUGGUCG
Outline: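 A randomised library covering all eight P1ex-region intron nucleotides was built with the intron in the knt kanamycin-resistance gene on pET-22b(+) and held in E. coli BL21(DE3). Cells were grown overnight at 37°C or 30°C on LB agar, with or without 25 μg/mL kanamycin, plus 100 μg/mL carbenicillin, 50 μM IPTG and 0.2% rhamnose, and pooled colonies were amplicon-sequenced on an Illumina HiSeq 2500. DiMSum fitness is the error-weighted combination of wild-type-normalised replicate fold changes, kanamycin versus none.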

Sequence | self-splicing fitness (ln) (30 °C) | self-splicing fitness (ln) (37 °C)
CACUAGCAAUAUUACGGGUA | -0.856 ± 0.057 | -0.188 ± 0.064
UGAGAGCAAUAUUACGGAUU | -3.39 ± 0.29 | 
CCUAAGCAAUAUUACGGCAC | -3.72 ± 0.25 | -2.62 ± 0.28
UUCUAGCAAUAUUACGGGCU | -3.73 ± 0.36 | -3.76 ± 0.36
UUUCAGCAAUAUUACGACGG | -1.02 ± 0.11 | 0.205 ± 0.17
UUAAAGCAAUAUUACGAUGC | -2.82 ± 0.11 | -2.2 ± 0.083
UCCUAGCAAUAUUACGAGCG | -1.5 ± 0.099 | -1.15 ± 0.14
AGUAAGCAAUAUUACGCUGG | -3.89 ± 0.23 | -2.39 ± 0.22
UUUUAGCAAUAUUACGAGUA | -1.55 ± 0.27 | -0.821 ± 0.29
CUGCAGCAAUAUUACGGUGC | -3.97 ± 0.24 | -1.96 ± 0.23
CUGCAGCAAUAUUACGAUGU | -3.96 ± 0.23 | -2.71 ± 0.3
CGCUAGCAAUAUUACGUGCG | -3.74 ± 0.26 | -2.4 ± 0.22
UCUAAGCAAUAUUACGCCUG | -1.6 ± 0.13 | -1.14 ± 0.2
UCGAAGCAAUAUUACGUACG | -1.01 ± 0.082 | 0.00936 ± 0.11
GUUGAGCAAUAUUACGUCUG | -2.34 ± 0.44 | -2.04 ± 0.4
UCCAAGCAAUAUUACGAUCA | -1.1 ± 0.14 | -0.861 ± 0.15
ACCCAGCAAUAUUACGAAAU | -1.42 ± 0.07 | -1.21 ± 0.083
UUAGAGCAAUAUUACGCCAA | -0.503 ± 0.16 | -0.0692 ± 0.2
GGCGAGCAAUAUUACGUAUA | -1.86 ± 0.14 | -1.07 ± 0.13
GUUCAGCAAUAUUACGUUCU | -0.734 ± 0.073 | -0.74 ± 0.087
UUACAGCAAUAUUACGAGGG | -3.1 ± 0.25 | -1.62 ± 0.21

Sequence | self-splicing fitness (ln) (30 °C) | self-splicing fitness (ln) (37 °C)
AUAGAGCAAUAUUACGAGUU | -2.25 ± 0.13 | -1.33 ± 0.15
AAGAAGCAAUAUUACGUUGC | -4.64 ± 0.31 | -3.65 ± 0.32
CCUCAGCAAUAUUACGACAC | -4.04 ± 0.28 | -2.5 ± 0.29
UUAGAGCAAUAUUACGUCUC | -3.56 ± 0.25 | -2.82 ± 0.34
AGUCAGCAAUAUUACGGUUA | -1.15 ± 0.087 | -0.533 ± 0.073
UUGGAGCAAUAUUACGAAAC |  | -2.22 ± 0.37
UCCAAGCAAUAUUACGGGCU | -3.43 ± 0.14 | -1.95 ± 0.12
AAGAAGCAAUAUUACGAAGU | -2.48 ± 0.16 | -2.12 ± 0.21
GACGAGCAAUAUUACGGGGG | -3.65 ± 0.22 | -2.98 ± 0.3
CCGAAGCAAUAUUACGCUGU | -3.74 ± 0.32 | -2.84 ± 0.4
AAGAAGCAAUAUUACGCAAG | -2.01 ± 0.13 | -1.15 ± 0.13
UCGGAGCAAUAUUACGAUAG | -3.29 ± 0.32 | -2.83 ± 0.35
AGUUAGCAAUAUUACGAGGG | -4.11 ± 0.38 | -2.06 ± 0.33
AAACAGCAAUAUUACGAUAC | -2.44 ± 0.11 | -1.37 ± 0.14
UCAUAGCAAUAUUACGCCCU | -2.75 ± 0.36 | 
GUGCAGCAAUAUUACGACGA | -0.272 ± 0.15 | 0.701 ± 0.14
CGGCAGCAAUAUUACGGCGG | -1.26 ± 0.11 | -0.79 ± 0.14
GUGUAGCAAUAUUACGGAUG | -3.29 ± 0.41 | -0.59 ± 0.35
GUGAAGCAAUAUUACGGAGU | -1.3 ± 0.072 | -0.63 ± 0.091
AUACAGCAAUAUUACGCACG | -2.13 ± 0.12 | -0.772 ± 0.15
ACCAAGCAAUAUUACGCCAC | -1.48 ± 0.31 | -2.12 ± 0.3

Sequence | self-splicing fitness (ln) (30 °C) | self-splicing fitness (ln) (37 °C)
UACGAGCAAUAUUACGUACC |  | -1.17 ± 0.36
UACAAGCAAUAUUACGCUAA | -1.95 ± 0.11 | -1.35 ± 0.11
UAACAGCAAUAUUACGACUG | -0.343 ± 0.077 | 0.429 ± 0.099
CGCUAGCAAUAUUACGCAAU | -2.44 ± 0.3 | -2.09 ± 0.36
CGGCAGCAAUAUUACGUUGG | -2.38 ± 0.11 | -1.46 ± 0.12
CAGGAGCAAUAUUACGUGCA | -3.17 ± 0.21 | -2.6 ± 0.34
AACCAGCAAUAUUACGGUCG | -0.366 ± 0.049 | 0.214 ± 0.07
GGGGAGCAAUAUUACGCAUA | -3.29 ± 0.48 | -2.28 ± 0.32
AUUGAGCAAUAUUACGGACU | -2.64 ± 0.21 | -0.639 ± 0.14
ACGUAGCAAUAUUACGAGAU | -2.82 ± 0.14 | -2.23 ± 0.19
AAUGAGCAAUAUUACGUCGA | -3.56 ± 0.21 | -2.84 ± 0.23
UUAAAGCAAUAUUACGUUGA | -0.721 ± 0.066 | -0.0751 ± 0.094
CUGAAGCAAUAUUACGCGGC | -0.11 ± 0.081 | 0.053 ± 0.11
CCCCAGCAAUAUUACGUAAG | -3.18 ± 0.12 | -1.33 ± 0.12
ACACAGCAAUAUUACGCGUA | -1.89 ± 0.078 | -1.2 ± 0.074
GGUUAGCAAUAUUACGCGUC | -1.53 ± 0.2 | -1.04 ± 0.18
CCCCAGCAAUAUUACGAUCG | -2.85 ± 0.13 | -0.917 ± 0.14
UUAGAGCAAUAUUACGGCGC | -2.79 ± 0.24 | -0.914 ± 0.25
AAAUAGCAAUAUUACGAAAU | -3.02 ± 0.15 | -1.2 ± 0.13
